{"source": "patent US12338281B2", "about": "“Anti-adrenomedullin antibodies and pharmaceutical compositions thereof” (ADRENOMED AG, priority 2011, dated 2025)", "molecules": {"B1": {"name": "NT-H: mouse monoclonal antibody raised against human ADM 1-21, … (SEQ ID: 15) (antibody, V domains shown)", "VH": "QVQLQQSGAELMKPGASVKISCKATGYTFSRYWIEWVKQRPGHGLEWIGEILPGSGSTNYNEKFKGKATITADTSSNTAYMQLSSLTSEDSAVYYCTEGYEYDGFDYWGQGTTLTVSS", "VL": "DVLLSQTPLSLPVSLGDQATISCRSSQSIVYSNGNTYLEWYLQKPGQSPKLLIYRVSNRFSGVPDRFSGSGSGTDFTLKISRVEAEDLGVYYCFQGSHIPYTFGGGTKLEIK"}}, "key": {"hADM": {"target": "T1, hADM (Homo sapiens, UniProt P35318)", "T1 sequence (P35318 95-146 limits assumed)": "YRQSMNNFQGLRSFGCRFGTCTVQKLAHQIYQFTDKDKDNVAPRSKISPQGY", "test": "Stability of human Adrenomedullin in human citrate plasma, quantified by hADM immunoassay", "assay_type": "in vitro ADME", "conditions": "10 nM hADM, 24° C., NT-H 100 μg/ml", "quoted_text": "The stabilizing effect of human ADM by human ADM antibodies was tested using a hADM immunoassay.\nThe technology used was a sandwich coated tube luminescence immunoassay, based on Acridinium ester labelling.\nThe final concentration was approx. 800.000 relative light units (RLU) of labelled compound (approx. 20 ng labeled antibody) per 200 μL.\nAfter blocking with 5% bovine serum albumine, the tubes were washed with PBS, pH 7.4 and vacuum dried.\nUnbound tracer was removed by washing 5 times (each 1 ml) with washing solution (20 mM PBS, pH 7.4, 0.1% Triton X-100).\nHuman ADM was diluted in human Citrate plasma (final concentration 10 nM) and incubated at 24° C. At selected time points, the degradation of hADM was stopped by freezing at −20° C. […] The remaining hADM was quantified by using the hADM immunoassay described above."}, "Human ADM 1-52": {"target": "T2, Human ADM 1-52 (Homo sapiens, UniProt P35318)", "T2 construct": "host or cells: the receptor chains are made by transfected CHO-K1 cells (FAST-027C); ADM is an added peptide", "T2 sequence (P35318 95-146)": "T1 sequence (P35318 95-146 limits assumed)", "test": "Human recombinant Adrenomedullin receptor (CRLR+RAMP3) cAMP functional assay (Adrenomedullin Bioassay) in CHO-K1 cells, agonist human ADM", "assay_type": "cell-based", "conditions": "Table 3; 5.63 nM Human ADM 1-52; antibody 0.16-100 μg/ml", "procedure": "The effect of selected ADM-antibodies on ADM-bioactivity was tested in an human recombinant Adrenomedullin receptor cAMP functional assay (Adrenomedullin Bioassay).\n• Cell line: CHO-K1 • Receptor: Adrenomedullin (CRLR+RAMP3) • Receptor Accession Number Cell line: CRLR: U17473; RAMP3: AJ001016\nDose response curves were performed in parallel with the reference agonists (hADM or mADM).\nFor antagonist testing, 6 μl of the reference agonist (human (5.63 nM) or mouse (0.67 nM) adrenomedullin) was mixed with 6 μl of the test samples at different antagonist dilutions; or with 6 μl buffer. After incubation for 60 min at room temperature, 12 μl of cells (2,500 cells/well) were added. The plates were incubated for 30 min at room temperature.\nThe anti-h-ADM antibodies (NT-H, MR-H, CT-H) were tested for antagonist activity in human recombinant adrenomedullin receptor (FAST-027C) cAMP functional assay in the presence of 5.63 nM Human ADM 1-52, at the following final antibody concentrations: 100 μg/ml, 20 μg/ml, 4 μg/ml, 0.8 μg/ml, 0.16 μg/ml."}}}
{"molecule": "B1", "values": [{"measurement": "half life of hADM in the presence of NT-H", "setting": "hADM", "result": 18.3, "unit": "h"}, {"measurement": "Maximal inhibition of ADM bioactivity (ADM-Bioassay) (%)", "setting": "Human ADM 1-52", "result": 38, "unit": "%"}]}
